This note sets out measurements from US5948643, “Modulators of BRCA1 activity” (Onyx Pharmaceuticals, Inc., dated 1999).

The target in test [1] is BRCA1 (1-300) fused to the GAL4 binding domain (human). Put plainly: yeast two-hybrid (Example 3). As to the method: (§1) Two hybrid experiments were conducted to ascertain the regions of the BRCA1 Modulator 091-21A31, Sequence ID No. 1 that interact with BRCA1. The assay was run essentially as described in Example 1. Transformation and growth of yeast cultures were performed essentially as described in U.S. Pat. No. 5,283,173; Chien et al., 1991, Proc. Natl. Acad. Sci. USA, 88: 9578–9582; or Spaargaren, M., et al., (1994) Biochem. J. 300, 303–307.

In test [2] the target is BRCA1 (1-600) fused to the GAL4 binding domain (human). The test is described as follows: yeast two-hybrid (Example 3). How it is done: as §1
Test [3] deals with GAL4-BRCA1 (8-1293): BRCA1 amino acids 8-1293 fused to the GAL4 binding domain (human). Put plainly: yeast two-hybrid (Example 3). As to the method:
as §1

The target of test [4] is T1, vector control (GAL4 binding domain vector without insert) (Saccharomyces cerevisiae (strain ATCC …, UniProt P04386)). The test is described as follows: yeast two-hybrid (Example 3); vector control. As to the method: as §1
The target of test [5] is BRCA1 (1-300) fused to the GAL4 binding domain (human). The test is described as follows: yeast two-hybrid, b-galactosidase. How it is done: (§2) The experiment was conducted using the two-hybrid assay as described in U.S. Pat. No. 5,283,173, or Chien et al., 1991, Proc. Natl. Acad. Sci. USA, 88: 9578–9582. The cDNAs that encode 091-1F84, Sequence ID No. 3, 091-21A31, Sequence ID No. 1 and 091-132Q20, Sequence ID No. 5 were fused to the GAL 4 activation domain, and those regions of BRCA1 shown in the table were fused to the binding domain of GAL4. The "+" sign is a subjective measure of the amount of b-galactosidase activity. One "+" being the lowest, and three "+++" being the highest activity.
(§3) Experiments were conducted to ascertain which regions of BRCA1 interact with the three BRCA1 Modulators described in Example 1. The experiment was conducted using the two-hybrid assay as described in U.S. Pat. No. 5,283,173, or Chien et al., 1991, Proc. Natl. Acad. Sci. USA, 88: 9578–9582. The cDNA that encodes the 091-1F84, Sequence ID No. 3, 091-21A31, Sequence ID No. 1, and 091-132Q20, Sequence ID No. 5 was fused to the GAL4 activation domain, and those regions of BRCA1 shown in Table 1 and that contain BRCA1 amino acids 1–300, 1–600, or 8–1293 were fused to the binding domain of GAL4. Controls consisted of the vector, or bcl2 fused to the GAL4 binding domain (See, U.S. Pat. 5,539,085).

For test [6], the target named is T1, vector control (GAL4 binding domain …). The test is described as follows: yeast two-hybrid, b-galactosidase; vector control. As to the method:
as §2, §3

B1: 091-21A31, Sequence ID No. 1 fragment containing amino acids 300-469 fused to the GAL4 activation domain (other)
chain: EVNLKLRRPSFRDDIDLNATFDVDTPPARPSSSQHGYYEKLCLEKSHSPIQDVPKKICKGPRKESQLSLGGQSCAGEPDEELVGAFPIFVRNAILGQKQPKRPRSESSCSKDVVRTGFDGLGGRTKFIQPTDTVMIRPLPVKPKTKVKQRVRVKTVPSLFQAKLDTFLWS
With B1, the binding result in test [1], in test [2], in test [3] and in test [4] was “no binding” each time.

B2: BRCA1 Modulator Protein 091-132Q20, Sequence ID No. 5, fused to the GAL4 activation domain (other)
chain: ARGGAEEATEAGRGGRRRSPRQKFEIGTMEEAGICGLGVKADMLCNSQSNDILQHQGSNCGGTSNKHSLEEDEGSDFITENRNLVSPAYCTQESREEIPGGEARTDPPDGQQDSECNRNKEKTLGKEVLLLMQALNTLSTPEEKLAALCKKYADLLEESRSVQKQMKILQKKQAQIVKEKVHLQSEHSKAILARSKLESLCRELQRHNKTLKEENMQQAREEEERRIEATAHFQITLNEIQAQLEQHDIHNAKLRQENIELGEKLKKLIEQYALREEHIDKVFKHKELQQQLVDAKLQQTTQLIKEADEKHQREREFLLKEATESRHKYEQMKQQEVQLKQQLSLYMDKFEEFQTTMAKSNELFTTFRQEMEKMTKKIKKKKKKLE
On to B2, for which the binding result in test [5] and in test [6] was “no binding” throughout.

B3: BRCA1 Modulator Protein 091-21A31, Sequence ID No. 1, fused to the GAL4 activation domain (other)
chain: MPIRALCTICSDFFDHSRDVAAIHCGHTFHLQCLIQWFETAPSRTCPQCRIQVGKRTIINKLFFDLAQEEENVLDAEFLKNELDNVRAQLSQKDKEKRDSQVIIDTLRDTLEERNATVVSLQQALGKAEMLCSTLKKQMKYLEQQQDETKQAQEEARRLRSKMKTMEQIELLLQSQRPEVEEMIRDMGVGQSAVEQLAVYCVSLKKEYENLKEARKASGEVADKLRKDLFSSRSKLQTVYSELDQAKLELKSAQKDLQSADKEIMSLKKKLTMLQETLNLPPVASETVDRLVLESPAPVEVNLKLRRPSFRDDIDLNATFDVDTPPARPSSSQHGYYEKLCLEKSHSPIQDVPKKICKGPRKESQLSLGGQSCAGEPDEELVGAFPIFVRNAILGQKQPKRPRSESSCSKDVVRTGFDGLGGRTKFIQPTDTVMIRPLPVKPKTKVKQRVRVKTVPSLFQAKLDTFLWS
Turning to B3, the binding result in test [5] and in test [6] was “no binding” each time.

B4: BRCA1 Modulator Protein 091-1F84, Sequence ID No. 3, fused to the GAL4 activation domain (other)
chain: ARESLSLPSMLRDAAIGTTPFSTCSVGTWFTPSAPQEKSTNTSQTGLVGTKHSTSETEQLLCGRPPDLTALSRHDLEDNLLSSLVILEVLSRQLRDWKSQLAVPHPETQDSSTQTDTSHSGITNKLQHLKESHEMGQALQQARNVMQSWVLISKELISLLHLSLLHLEEDKTTVSQESRRAETLVCCCFDLLKKLRAKLQSLKAEREEARHREEMALRGKDAAEIVLEAFCAHASQRISQLEQDLASMREFRGLLKDAQTQLVGLHAKQEELVQQTVSLTSTLQQDWRSMQLDYTTWTALLSRSRQLTEKLTVKSQQALQERDVAIEEKQEVSRVLEQVSAQLEECKGQTEQLELENSRLATDLRAQLQILANMDSQLKELQSQHTHCAQDLAMKDELFCQLTQSNEEQAAQWQKEEMALKHMQAELQQQQAVLAKEVRDLKETLEFADQENQVAHLELGQVECQLKTTLEVLRERSLQCENLKDTVENLTAKLASTIADNQEQDLEKTRQYSQKLRLLTEQLQSLTLFLQTKLKEKTEQETLLLSTACPPTQEHPLPNDRTFLGSILTAVADEEPESTPVPLLGSDKSAFTRVASMVSLQPAETPGMEESLAEMSIMTTELQSLCSLLQESKEEAIRTLQRKICELQVRLQAQEEQHQEVQKAKEADIEKLNQALCLRYKNEKELQEVIQQQNEKILEQIDKSGELISLREEVTHLTRSLRRAETETKVLQEALAGQLDSNCQPMATNWIQEKVWLSQEVDKLRVMFLEMKNEKEKLMIKFQSHRNILEENLRRSDKELEKLDDIVQHIYKTLLSIPEVVRGCRELQGLLEFLS
For B4, the binding result in test [5] and in test [6] was “no binding” in each case.

B5: 091-21A31, Sequence ID No. 1 fragment containing amino acids 1-300 fused to the GAL4 activation domain (other)
chain: MPIRALCTICSDFFDHSRDVAAIHCGHTFHLQCLIQWFETAPSRTCPQCRIQVGKRTIINKLFFDLAQEEENVLDAEFLKNELDNVRAQLSQKDKEKRDSQVIIDTLRDTLEERNATVVSLQQALGKAEMLCSTLKKQMKYLEQQQDETKQAQEEARRLRSKMKTMEQIELLLQSQRPEVEEMIRDMGVGQSAVEQLAVYCVSLKKEYENLKEARKASGEVADKLRKDLFSSRSKLQTVYSELDQAKLELKSAQKDLQSADKEIMSLKKKLTMLQETLNLPPVASETVDRLVLESPAPVE
Regarding B5, the binding result in test [1], in test [2] and in test [4] was “no binding” each time.

B6: 091-21A31, Sequence ID No. 1 fragment containing amino acids 78-469 fused to the GAL4 activation domain (other)
chain: FLKNELDNVRAQLSQKDKEKRDSQVIIDTLRDTLEERNATVVSLQQALGKAEMLCSTLKKQMKYLEQQQDETKQAQEEARRLRSKMKTMEQIELLLQSQRPEVEEMIRDMGVGQSAVEQLAVYCVSLKKEYENLKEARKASGEVADKLRKDLFSSRSKLQTVYSELDQAKLELKSAQKDLQSADKEIMSLKKKLTMLQETLNLPPVASETVDRLVLESPAPVEVNLKLRRPSFRDDIDLNATFDVDTPPARPSSSQHGYYEKLCLEKSHSPIQDVPKKICKGPRKESQLSLGGQSCAGEPDEELVGAFPIFVRNAILGQKQPKRPRSESSCSKDVVRTGFDGLGGRTKFIQPTDTVMIRPLPVKPKTKVKQRVRVKTVPSLFQAKLDTFLWS
Turning to B6, the binding result in test [1] and in test [4] was “no binding” each time.
